Results: publication PMC11746035 (Frontiers in Immunology, 2024)

Molecular target: T1, SARS-CoV-2 BQ.1.1 RBD (SARS-CoV-2, Omicron BQ.1.1, L452R | K444T)
T1 construct: also called L452R RBD of BQ.1.1
Test: BLI; antibody (IgG1, 11 μg/mL) loaded on AHC2 biosensor to about 1.5 nm; RBD in solution, association 300 s, dissociation 600 s; PBS-TB (PBS, 0.02% v/v Tween-20, 0.1% w/v BSA); 25°C; 1,000 rpm; binding response less than 0.1 considered non-binding
Settings: both partners purified

B1: BD56-595 N56 allelic variant (antibody, V domains shown)
VH: QITLKESGPTLVKPTQTLTLTCTFSGFSITTAGVGVGWIRQPPGKALEWLALIYWNGDRRYSPSLKNRVDITTDISKNQVVLTMTNMAPVDTATYYCAQHTIDMILDYWGQGTLVTVSS
VL: QSALTQPPSASGSPGQSVTISCTATSSDVGAYNYVSWYQQHPGKAPKLMIYEVNKRPSGVPDRFSGSKSGNTASLTVSGLQAEDEADYYCSSYTDNIVFGTGTRVTVL
notes: as the heavy chain of m12, with N56 in place of D56; numbers count on: IMGT unique numbering, excluding any gaps; as the light chain of m12; IgG1; also called N56 allele
fold increase in binding affinity against the D56 variant: 57 fold

B2: BD57-028 N56 allelic variant (antibody, V domains shown)
VH: QITLKESGPTLVKPTQTLTLTCTFSGFSLSASGEGMGWIRQPPGKALEWLALIYWNADERYSPSLRSRLTITKDTSKNQVVLKMTNMNPVDTATYYCAHHSITTVVDYWGQGMLVTVSS
VL: QSALTQPASVSGSPGQSITISCTGTISDVGAFNYVSWYQQHPGRAPKLIIYDVSTRPSGISIRFSGSKSGNTASLTISGLQPEDEADYYCSSYSHTSLVFGTGTKVTVL
notes: as the heavy chain of m8, with N56 in place of D56; numbers count on: IMGT unique numbering, excluding any gaps; as the light chain of m8; IgG1; also called N56 allele
fold increase in binding affinity against the D56 variant: 57 fold
